# Assay results from patent US20240343800A1 (Merck KGaA, published 2024).
# Positions count from the first letter of the chain named.
# B1: 69A02 (bispecific TCE of Table 29) (bispecific antibody, V domains shown)
# VH: QVTLKESGPTLVKPTQTLTLTCSFSGFSITTSGVSVGWIRQPPGKALEWLALIYWDDDKRYSPSLKSRLTITRDTSKNQVVLTMTNMDPVDTATYYCAHAPRYTPGGYFDYWGQGTLVTVSS
# VL: ETTLTQSPATLSVSPGETATLSCRASQSVSSNLAWYQQKPGQAPRLLIYGASTRATGIPATFSGSGSGTEFTLTISSLQSEDFAIYYCQQYKNWPPAFGGGTELEIK
# B2: 82H02 (bispecific TCE of Table 29) (bispecific antibody, V domains shown)
# VH: EVQLLESGGGLVQPGGSLRLSCAASGFTFTSYAMSWVRQAPGKGLEWVSTISGSGGGTYYTDSVKGRFTISRDNSKNTLYLQMNSLRAEDTAVYYCAQGSSIFDYWGQGTLVTVSS
# VL: EIVLTQSPATLSLSPGERATLSCRASQSVSSYLAWYQQKPGQAPRLLIYDASNRATGIPARFSGSGSGTDFTLTISSLEPEDFAVYYCQQRSNWPPCTFGQGTRLEIK
# B3: 82H02 VL1.02 (bispecific TCE of Table 29) (bispecific antibody, V domains shown)
# VH: B2 VH
# VL: B2 VL with C97R
# notes: also called 82H02 v1.02
# B4: 82H02 VL1.08 (bispecific TCE of Table 29) (bispecific antibody, V domains shown)
# VH: B2 VH
# VL: B2 VL with C97Y
# notes: also called 82H02 v1.08
# B5: 82H02 VL1.06 (low) (bispecific TCE of Table 29) (bispecific antibody, V domains shown)
# VH: B2 VH
# VL: B2 VL with C97F
# notes: also called 82H02 v1.06
# B6: 82H02 VL1.09 (bispecific TCE of Table 29) (bispecific antibody, V domains shown)
# VH: B2 VH
# VL: B2 VL with C97V
# notes: also called 82H02 v1.09
# B7: 82H02 VL1.03 (bispecific TCE of Table 29) (bispecific antibody, V domains shown)
# VH: B2 VH
# VL: B2 VL with C97Q
# notes: also called 82H02 v1.03
# B8: 82H02 VL1.07 (high) (bispecific TCE of Table 29) (bispecific antibody, V domains shown)
# VH: B2 VH
# VL: B2 VL with C97S
# notes: also called 82H02 v1.07
# B9: 82H02 VL1.04 (bispecific TCE of Table 29) (bispecific antibody, V domains shown)
# VH: B2 VH
# VL: not shown
# notes: also called 82H02 v1.04
# B10: 82H02 VL1.05 (bispecific TCE of Table 29) (bispecific antibody, V domains shown)
# VH: B2 VH
# VL: B2 VL with C97L
# notes: also called 82H02 v1.05
# B11: Parental 1F3.5 (CD3-binding bispecific TCE of Table 30) (bispecific antibody, V domains shown)
# VH: EVQLVESGGGLVQPGGSLRLSCAASGFTFNTYAMNWVRQAPGKGLEWVARIRSKYNNYATYYADSVKDRFTISRDDSKNTLYLQMNSLRAEDTAVYYCVRHGNFGNSYVSWFAYWGQGTMVTVSS
# VL: QAVVTQEPSLTVSPGGTVTLTCRSSTGAVTTSNYANWVQQKPGQAPRGLIGGTNKRAPGTPARFSGSLLGGKAALTLSGVQPEDEAEYYCALWYSNLWVFGGGTKLTVLG
# notes: also called IF3.5
# B12: 1F3.5 VL1.00-VH1.05 (CD3-binding bispecific TCE of Table 30) (bispecific antibody, V domains shown)
# VH: EVQLVESGGGLVQPGGSLKLSCAASGFTFNTYAMNWVRQASGKGLEWVGRIRSKYNNYATYYADSVKGRFTISRDDSKNTAYLQMNSLKTEDTAVYYCVRHGNFGNAYVSFAYWGQGTMVTVSS
# VL: B11 VL
# notes: CD3 Fab arm only; VL1.00 read as the parental 1F3.5 light chain
# B13: 1F3.5 VL1.01-VH1.00 (CD3-binding bispecific TCE of Table 30) (bispecific antibody, V domains shown)
# VH: B11 VH
# VL: B11 VL with A2T, R23A, G48A
# notes: CD3 Fab arm only; VH1.00 read as the parental 1F3.5 heavy chain
# B14: 1F3.5 VL1.01-VH1.05 (CD3-binding bispecific TCE of Table 30) (bispecific antibody, V domains shown)
# VH: B12 VH
# VL: B11 VL with A2T, R23A, G48A
# notes: CD3 Fab arm only
# B15: 1F3.5 VL1.00-VH1.03 (high) (CD3-binding bispecific TCE of Table 30) (bispecific antibody, V domains shown)
# VH: B11 VH with R19K, P41S, A49G, D68G, R89K, A90T, N106A
# VL: B11 VL
# notes: CD3 Fab arm only; VL1.00 read as the parental 1F3.5 light chain; also called 1F3.5-VH1.03
# B16: 1F3.5 VL1.01-VH1.01 (low) (CD3-binding bispecific TCE of Table 30) (bispecific antibody, V domains shown)
# VH: B11 VH with R19K, P41S, A49G, D68G, R89K, A90T
# VL: B11 VL with A2T, R23A, G48A
# notes: CD3 Fab arm only; also called 1F3.5-VH1.01-VL1.01
# B17: 1F3.5 VL1.01-VH1.03 (CD3-binding bispecific TCE of Table 30) (bispecific antibody, V domains shown)
# VH: B11 VH with R19K, P41S, A49G, D68G, R89K, A90T, N106A
# VL: B11 VL with A2T, R23A, G48A
# notes: CD3 Fab arm only
# B18: 1F3.5 VL1.00-VH1.02 (CD3-binding bispecific TCE of Table 30) (bispecific antibody, V domains shown)
# VH: B11 VH with R19K, P41S, A49G, D68G, L81A, R89K, A90T
# VL: B11 VL
# notes: as for B12
# B19: 1F3.5 VL1.00-VH1.01 (CD3-binding bispecific TCE of Table 30) (bispecific antibody, V domains shown)
# VH: B11 VH with R19K, P41S, A49G, D68G, R89K, A90T
# VL: B11 VL
# notes: CD3 Fab arm only
# B20: 1F3.5 VL1.00-VH1.04 (CD3-binding bispecific TCE of Table 30) (bispecific antibody, V domains shown)
# VH: B11 VH with R19K, P41S, A49G, D68G, R89K, A90T, N106E
# VL: B11 VL
# notes: as for B12
# B21: 1F3.5 VL1.01-VH1.02 (CD3-binding bispecific TCE of Table 30) (bispecific antibody, V domains shown)
# VH: B11 VH with R19K, P41S, A49G, D68G, L81A, R89K, A90T
# VL: B11 VL with A2T, R23A, G48A
# notes: CD3 Fab arm only
# B22: 1F3.5 VL1.01-VH1.04 (CD3-binding bispecific TCE of Table 30) (bispecific antibody, V domains shown)
# VH: B11 VH with R19K, P41S, A49G, D68G, R89K, A90T, N106E
# VL: B11 VL with A2T, R23A, G48A
# notes: CD3 Fab arm only
# Molecular target: T1, recombinant human ROR1 extracellular domain protein (human, UniProt Q01973 30-406)
# T1 construct: also called Human/Cyno ROR1
# Test: biolayer interferometry, TCE immobilized
# Text: (§1) This example describes biolayer interferometry experiments that were used to determine the binding affinities of bispecific TCEs and sequence optimized variants of the present disclosure.
row,Binder,Kd [nM]
1,B1,3.5
2,B2,5.4
3,B3,122
4,B4,166
5,B5,99
6,B6,160
7,B7,475
8,B8,4.2
9,B9,50.7
10,B10,154

# Molecular target: T2, recombinant human CD3ε/δ heterodimer SEED Fc fusion protein (human, UniProt P07766 23-126; P04234 22-105)
# T2 construct: not shown: SEED Fc arm, not specified
# Test: biolayer interferometry, TCE immobilized
# Text: as §1
# T2 sequence (P07766 23-126, stated change not applied, chain 1 of 2): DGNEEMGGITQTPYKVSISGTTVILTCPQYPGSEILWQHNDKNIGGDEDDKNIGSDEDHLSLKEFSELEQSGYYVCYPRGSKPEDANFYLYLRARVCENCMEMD
# T2 sequence (P04234 22-105, stated change not applied, chain 2 of 2): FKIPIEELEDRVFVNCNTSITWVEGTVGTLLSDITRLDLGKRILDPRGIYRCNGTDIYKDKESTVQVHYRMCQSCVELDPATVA
row,Binder,Kd [nM]
1,B11,2.7
2,B12,8.2
3,B13,62.3
4,B14,59.2
5,B15,4.6
6,B16,42
7,B17,84.8
8,B18,5.5
9,B19,2.9
10,B20,6.5
11,B21,47.1
12,B22,74.2
